According to publication PMC3688715:

Target: Heteropneustes fossilis hepatic cytosolic arginase (ARG I) (Heteropneustes fossilis (endogenous in liver))
Assay: SEC + other: SDS-PAGE and western blotting; native mass of the purified enzyme by gel filtration on Sephadex G-150 with four standard proteins (75±3 kDa); subunit mass by SDS-PAGE and western blotting (24 kDa); single band on native PAGE

Heteropneustes fossilis hepatic cytosolic arginase (ARG I) (enzyme)
stoichiometry N: 3
